Assay results reported in patent US20080219947A1.

Assays:
[1] = biological target: β2-microglobulin(L20).etK^b single chain dimer (murine) (UniProt P01887); test: flow cytometry on LM1.8 transfectants
[2] = biological target: epitope-tagged K^b (K^bR48Q.R50P), unattached (murine) (UniProt P01901); test: flow cytometry on LM1.8 transfectants
[3] = biological target: β2m^b.L^d single chain dimer (murine) (UniProt P01887); test: flow cytometry on DLD-1 transfectants, 64-3-7 against 30-5-7 staining
[4] = biological target: p29.β2m^b.L^d single chain trimer (murine) (UniProt P01887); test: as above
[5] = biological target: MCMV.β2m^b.L^d single chain trimer (murine) (UniProt P01887); test: as above
[6] = biological target: QL9.β2m^b.L^d single chain trimer (murine) (UniProt P01887); test: as above

Chain of UniProt P01901 (P01901 22-305, stated change not applied): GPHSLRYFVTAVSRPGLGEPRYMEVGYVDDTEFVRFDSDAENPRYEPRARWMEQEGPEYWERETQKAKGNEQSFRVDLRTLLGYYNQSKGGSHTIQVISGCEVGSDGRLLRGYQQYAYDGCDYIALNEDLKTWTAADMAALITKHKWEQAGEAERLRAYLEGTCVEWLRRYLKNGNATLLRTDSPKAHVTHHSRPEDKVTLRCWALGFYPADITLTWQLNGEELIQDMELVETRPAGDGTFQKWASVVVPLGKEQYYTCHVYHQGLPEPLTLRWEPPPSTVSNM

Q: Which results are given for mAb 64-3-7 (antibody)?
A: open conformers as a fraction of the sum of B8-24-3 and 64-3-7 fluorescence intensity [1]: > 10%; open conformers as a fraction of the sum of B8-24-3 and 64-3-7 fluorescence intensity [2]: > 10%; percent of surface molecules detected in an open conformation [3]: 39%; percent of surface molecules detected in an open conformation [4]: 8%; percent of surface molecules detected in an open conformation [5]: 22%; percent of surface molecules detected in an open conformation [6]: 22%
